Test results: paper PMC8177864
Where two headings read alike, the source gives them in different places.

How the values were obtained:
androgen receptor (rAR) [1] = target: T1, androgen receptor (rAR) (rat, UniProt P15207 1-902); experiment: EMSA
androgen receptor (rAR) [2] = target: T1, androgen receptor (rAR); experiment: EMSA; remark: listed apart in the source

T1 sequence (P15207 whole entry S389L): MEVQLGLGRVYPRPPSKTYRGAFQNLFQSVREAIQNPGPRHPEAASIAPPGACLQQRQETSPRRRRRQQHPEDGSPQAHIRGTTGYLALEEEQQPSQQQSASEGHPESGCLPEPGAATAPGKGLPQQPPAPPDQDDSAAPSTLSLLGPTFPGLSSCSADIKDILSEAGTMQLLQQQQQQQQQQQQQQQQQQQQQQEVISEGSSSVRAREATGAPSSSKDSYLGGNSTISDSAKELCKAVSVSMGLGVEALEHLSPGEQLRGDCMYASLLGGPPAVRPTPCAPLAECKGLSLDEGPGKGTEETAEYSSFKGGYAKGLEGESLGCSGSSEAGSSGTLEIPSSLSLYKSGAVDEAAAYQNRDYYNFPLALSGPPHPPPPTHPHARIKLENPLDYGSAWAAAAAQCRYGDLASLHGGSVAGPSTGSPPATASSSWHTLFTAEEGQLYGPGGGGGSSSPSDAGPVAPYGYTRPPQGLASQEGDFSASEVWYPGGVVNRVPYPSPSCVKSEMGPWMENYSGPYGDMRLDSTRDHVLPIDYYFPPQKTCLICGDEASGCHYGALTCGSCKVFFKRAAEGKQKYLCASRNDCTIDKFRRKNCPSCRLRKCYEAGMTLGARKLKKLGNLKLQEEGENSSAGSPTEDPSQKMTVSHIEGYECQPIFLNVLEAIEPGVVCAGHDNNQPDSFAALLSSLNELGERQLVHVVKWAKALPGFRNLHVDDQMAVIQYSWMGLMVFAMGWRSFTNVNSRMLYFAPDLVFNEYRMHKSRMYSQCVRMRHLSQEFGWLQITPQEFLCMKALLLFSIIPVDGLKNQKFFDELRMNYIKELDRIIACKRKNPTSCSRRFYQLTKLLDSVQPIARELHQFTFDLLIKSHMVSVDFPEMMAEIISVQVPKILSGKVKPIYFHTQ

Binder	binding result (androgen receptor (rAR) [1])	binding result (androgen receptor (rAR) [2])
HRE consensus (dsDNA) DNA 1: ACGGGTGGAACGCGGTGTTCTTTTGGCACG DNA 2: CGTGCCAAAAGAACACCGCGTTCCACCCGT	binds	–
-499/-484 HRE (dsDNA) DNA 1: ATCTAGAATAATTGGTATTAGAACAGGCTGCTTAAAACAGTTAA DNA 2: TTAACTGTTTTAAGCAGCCTGTTCTAATACCAATTATTCTAGAT	–	no binding
-159/-144 HRE (dsDNA) DNA 1: GGGCTTGGCATGTTCTGTTAGCACTCTTTTAGATT DNA 2: AATCTAAAAGAGTGCTAACAGAACATGCCAAGCCC	–	no binding
